Six sequences from the supplement of paper PMC5998384 can be followed below.

In data set [1] the test system is HeLa Kyoto. The data set is described as follows: solubility change mitosis vs G1/S (difference of NP-40 vs SDS log2 ratios) (log2 ratio difference); higher = more soluble in mitosis.
Data set [2] concerns HeLa Kyoto. The data set is described as follows: melting temperature (median over replicates), in situ; higher = more thermally stable.
The subject of data set [3] is HeLa Kyoto. Briefly: thermal stability score vs G1/S (z-score of summed log2 fold changes over temperatures); higher = more thermally stable than in G1/S.
The test system of data set [4] is HeLa Kyoto. The data set is described as follows: solubility in G1/S (NP-40 vs SDS abundance) (log2 ratio); higher = more soluble. Conditions: cell cycle stage: G1/S.
Where [5] appears, read: cell cycle stage: early G1 (4.5 h after nocodazole release).
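For melting temperature (median over replicates), in situ in this document: HeLa Kyoto cells synchronized by double thymidine or nocodazole block, proteins quantified by TMT10plex mass spectrometry, three independent biological replicates.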
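For solubility change mitosis vs G1/S (difference of NP-40 vs SDS log2 ratios) in this document: synchronized HeLa Kyoto cells (double thymidine block for G1/S, nocodazole release for mitosis), protein amounts in NP-40 versus SDS lysates quantified by mass spectrometry, three biological replicates.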
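For solubility in G1/S (NP-40 vs SDS abundance) in this document: HeLa Kyoto cells arrested at G1/S by double thymidine block, proteins quantified by TMT10plex mass spectrometry in mild NP-40 versus SDS extracts, three biological replicates.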
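For thermal stability score vs G1/S (z-score of summed log2 fold changes over temperatures) in this document: synchronized HeLa Kyoto cells, proteins quantified by TMT10plex mass spectrometry, three biological replicates, mitosis taken 0.5 h after nocodazole release, G1/S directly after double thymidine block.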

Consider “MALLLCFVLLCGVVDFARSLSITTPEEMIEKAKGETAYLPCKFTLSPEDQGPLDIEWLISPADNQKVDQVIILYSGDKIYDDYYPDLKGRVHFTSNDLKSGDASINVTNLQLSDIGTYQCKVKKAPGVANKKIHLVVLVKPSGARCYVDGSEEIGSDFKIKCEPKEGSLPLQYEWQKLSDSQKMPTSWLAEMTSSVISVKNASSEYSGTYSCTVRNRVGSDQCLLRLNVVPPSNKAGLIAGAIIGTLLALALIGLIIFCCRKKRREEKYEKEVHHDIREDVPPPKSRTSTARSYIGSNHSSLGSMSPSNMEGYSKTQYNQVPSEDFERTPQSPTLPPAKVAAPNLSRMGAIPVMIPAQSKDGSIV [CXADR]”, for which the “solubility change mitosis (log2)” value in the data set on HeLa Kyoto [1] was -0.112. Moreover, the values for the melting temperature in the data set on HeLa Kyoto [2] (cell cycle stage: G1/S) and in the data set on HeLa Kyoto [2] (cell cycle stage: mitosis) were 59.4 °C and 57.6 °C, respectively. The thermal stability score in the data set with HeLa Kyoto [3] (setting [5]) was -1.74; in the data set with HeLa Kyoto [3] (cell cycle stage: mitosis) it was -2.2. In addition, in the data set on HeLa Kyoto [4], the “solubility in G1/S (log2)” value was 0.245.

For the sequence “MASGSVAECLQQETTCPVCLQYFAEPMMLDCGHNICCACLARCWGTAETNVSCPQCRETFPQRHMRPNRHLANVTQLVKQLRTERPSGPGGEMGVCEKHREPLKLYCEEDQMPICVVCDRSREHRGHSVLPLEEAVEGFKEQIQNQLDHLKRVKDLKKRRRAQGEQARAELLSLTQMEREKIVWEFEQLYHSLKEHEYRLLARLEELDLAIYNSINGAITQFSCNISHLSSLIAQLEEKQQQPTRELLQDIGDTLSRAERIRIPEPWITPPDLQEKIHIFAQKCLFLTESLKQFTEKMQSDMEKIQELREAQLYSVDVTLDPDTAYPSLILSDNLRQVRYSYLQQDLPDNPERFNLFPCVLGSPCFIAGRHYWEVEVGDKAKWTIGVCEDSVCRKGGVTSAPQNGFWAVSLWYGKEYWALTSPMTALPLRTPLQRVGIFLDYDAGEVSFYNVTERCHTFTFSHATFCGPVRPYFSLSYSGGKSAAPLIICPMSGIDGFSGHVGNHGHSMETSP [TRIM27]”, the “solubility change mitosis (log2)” value in the data set on HeLa Kyoto [1] was -0.135. For the same sequence, the melting temperature with HeLa Kyoto [2] (cell cycle stage: G1/S) amounted to 50.9 °C; with HeLa Kyoto [2] (cell cycle stage: mitosis) it was 50.5 °C. Also, the results for the thermal stability score with HeLa Kyoto [3] (setting [5]) and in the data set on HeLa Kyoto [3] (cell cycle stage: mitosis) were 1.44 and 3.24, respectively. For the same sequence, in the data set on HeLa Kyoto [4], the “solubility in G1/S (log2)” value was -0.499.

For “MICLVLTIFANLFPAACTGAHERTFLAVKPDGVQRRLVGEIVRRFERKGFKLVALKLVQASEELLREHYAELRERPFYGRLVKYMASGPVVAMVWQGLDVVRTSRALIGATNPADAPPGTIRGDFCIEVGKNLIHGSDSVESARREIALWFRADELLCWEDSAGHWLYE [NME3]”, the “solubility change mitosis (log2)” value with HeLa Kyoto [1] is -0.0854. Also, the results for the melting temperature with HeLa Kyoto [2] (cell cycle stage: G1/S) and in the data set on HeLa Kyoto [2] (cell cycle stage: mitosis) were 55.7 °C and 56.8 °C, respectively. The thermal stability score is -1.81 in the data set with HeLa Kyoto [3] (setting [5]) and -2.22 with HeLa Kyoto [3] (cell cycle stage: mitosis). Besides, the “solubility in G1/S (log2)” value with HeLa Kyoto [4] was -0.213.

For the sequence “MSDIGDWFRSIPAITRYWFAATVAVPLVGKLGLISPAYLFLWPEAFLYRFQIWRPITATFYFPVGPGTGFLYLVNLYFLYQYSTRLETGAFDGRPADYLFMLLFNWICIVITGLAMDMQLLMIPLIMSVLYVWAQLNRDMIVSFWFGTRFKACYLPWVILGFNYIIGGSVINELIGNLVGHLYFFLMFRYPMDLGGRNFLSTPQFLYRWLPSRRGGVSGFGVPPASMRRAADQNGGGGRHNWGQGFRLGDQ [DERL1]”, the “solubility change mitosis (log2)” value in the data set on HeLa Kyoto [1] is -0.273. Also, the melting temperature with HeLa Kyoto [2] (cell cycle stage: G1/S) amounted to 51.6 °C; with HeLa Kyoto [2] (cell cycle stage: mitosis), 55.3 °C. Further, the figures for the thermal stability score with HeLa Kyoto [3] (setting [5]) and in the data set on HeLa Kyoto [3] (cell cycle stage: mitosis) were -0.109 and -0.882, respectively. Moreover, the “solubility in G1/S (log2)” value in the data set on HeLa Kyoto [4] turned out to be 0.00239.

Consider “MEKNGNNRKLRVCVATCNRADYSKLAPIMFGIKTEPEFFELDVVVLGSHLIDDYGNTYRMIEQDDFDINTRLHTIVRGEDEAAMVESVGLALVKLPDVLNRLKPDIMIVHGDRFDALALATSAALMNIRILHIEGGEVSGTIDDSIRHAITKLAHYHVCCTRSAEQHLISMCEDHDRILLAGCPSYDKLLSAKNKDYMSIIRMWLGDDVKSKDYIVALQHPVTTDIKHSIKMFELTLDALISFNKRTLVLFPNIDAGSKEMVRVMRKKGIEHHPNFRAVKHVPFDQFIQLVAHAGCMIGNSSCGVREVGAFGTPVINLGTRQIGRETGENVLHVRDADTQDKILQALHLQFGKQYPCSKIYGDGNAVPRILKFLKSIDLQEPLQKKFCFPPVKENISQDIDHILETLSALAVDLGGTNLRVAIVSMKGEIVKKYTQFNPKTYEERINLILQMCVEAAAEAVKLNCRILGVGISTGGRVNPREGIVLHSTKLIQEWNSVDLRTPLSDTLHLPVWVDNDGNCAALAERKFGQGKGLENFVTLITGTGIGGGIIHQHELIHGSSFCAAELGHLVVSLDGPDCSCGSHGCIEAYASGMALQREAKKLHDEDLLLVEGMSVPKDEAVGALHLIQAAKLGNAKAQSILRTAGTALGLGVVNILHTMNPSLVILSGVLASHYIHIVKDVIRQQALSSVQDVDVVVSDLVDPALLGAASMVLDYTTRRIY [GNE]”, for which the “solubility change mitosis (log2)” value with HeLa Kyoto [1] was -0.159. Further, the melting temperature with HeLa Kyoto [2] (cell cycle stage: G1/S) is 55.2 °C; in the data set on HeLa Kyoto [2] (cell cycle stage: mitosis), 55.8 °C. The thermal stability score in the data set on HeLa Kyoto [3] (setting [5]) turned out to be 3.4; with HeLa Kyoto [3] (cell cycle stage: mitosis), 4.39. Moreover, the “solubility in G1/S (log2)” value in the data set with HeLa Kyoto [4] was -0.138.

Regarding “MASGQGPGPPRQECGEPALPSASEEQVAQDTEEVFRSYVFYRHQQEQEAEGVAAPADPEMVTLPLQPSSTMGQVGRQLAIIGDDINRRYDSEFQTMLQHLQPTAENAYEYFTKIATSLFESGINWGRVVALLGFGYRLALHVYQHGLTGFLGQVTRFVVDFMLHHCIARWIAQRGGWVAALNLGNGPILNVLVVLGVVLLGQFVVRRFFKS [BAK1]”, in the data set with HeLa Kyoto [1], the “solubility change mitosis (log2)” value is -0.0672. In addition, the melting temperature with HeLa Kyoto [2] (cell cycle stage: mitosis) stood at 55.7 °C. Moreover, the thermal stability score in the data set on HeLa Kyoto [3] (setting [5]) was -0.0676; in the data set with HeLa Kyoto [3] (cell cycle stage: mitosis), -0.207. For the same sequence, in the data set on HeLa Kyoto [4], the “solubility in G1/S (log2)” value was -0.215.
